# Assay: soluble on expression in E. coli; label from the status in PepcDB or PDB records
row,Sequence,soluble on expression in E. coli
1,MRFLIPIIFTTLPLCLQAQEDPCASAPSEAAKIMCKQIHRWDDGARAASKKKKIALPPGMAKGMAAEFAPIASNIYQCMDLPCLCSYLRGTASGNGCTLPNGRPLQKSVRKEYRTLTDDERNRLHAAFRALKNNGEYERIGRIHSQMSAAGGAHSGPAFLPWHREFVKRVEFALRQVDPTVNLPYWDSTLDSRLPRPADTIMFSDYLMGSTGLVNDGPFTNWRTLAGRAQILRAVGAQGAPLSQNDIDFVMRQTQIDQVLSFTAPQQGCPYRTDFNCLEYTHGNVHIFVGGDMFDTATSSNDPSFFLHHAFIDFVWEEWRLARQSRADREIAFPPDNQLCASAQHFGASPMQPFSPMRNIDGLSNKYTDNLYSYAPRPTCQAGGDCGSKFLFCDTSTGAARCVSRIRPGSQCGQFRVNPCFSGICQNGVCVLSSTAPRPTPAPTTPTPQNPVQSQESCFNENQCCASWAASGECSRNTAYMNEWCKASCGVCKPKYRLADDCTDRHTQCSSWSRSGECTKNQLWMTENCRKSCNKCGRSRAQECGGGGTTVTTTTPAPAQQCDNSDGCFNENVCCAVWGLMGECRKNTRYMACNCRVSCGHCYPEDYNYGSCVDYHRSCAGWARVGECQKNPWMAENCRSSCNSCYTQSELRRMCGTTAGSVAPVAQVRQTNPSRQPPRGGWGRDDFGDNGGWGGNGGGGWGNNDPWGGSRWGGGRGGWGGGGWGGGGWGKRSIRAANASISMPSFDPDLL,not soluble
2,MRFPELEELKNRRTLKWTRFPEDVLPLWVAESDFGTCPQLKEAMADAVEREVFGYPPDATGLNDALTGFYERRYGFGPNPESVFAIPDVVRGLKLAIEHFTKPGSAIIVPLPAYPPFIELPKVTGRQAIYIDAHEYDLKEIEKAFADGAGSLLFCNPHNPLGTVFSEEYIRELTDIAAKYDARIIVDEIHAPLVYEGTHVVAAGVSENAANTCITITATSKAWNTAGLKCAQIFFSNEADVKAWKNLSDITRDGVSILGLIAAETVYNEGEEFLDESIQILKDNRDFAAAELEKLGVKVYAPDSTYLMWLDFAGTKIEEAPSKILREEGKVMLNDGAAFGGFTTCARLNFACSRETLEEGLRRIASVL,not soluble
3,MRFTVTSRGDDVSNTLQQKIKRYLLDFGLTLDEQEPDIVITVGGDGTLLHAFHRYTSRLEDTAFVGIHTGHLGFYADWVPDEVEKLVIHIAKTPYQIVEYPLLEVVVRHTDESESKRLLALNECTVKSQEGSLVSNVEIKGDVFEVFRGDGLCISTPSGSTAYNKALGGAILHPSLASIQISEMASINNRVYRTIGSPLVLPQHHTCLIKPLNQVELQVTIDHFTLAYKRVKSIQCRVAEEKIRFARFRPFPFWKRVKESFIGDSLEHHHHHH,soluble
4,MRFVMPGDRIGSAEEYVKGEGVYEEGGELFAAVAGKLIIKDRVAKVESISPIPEIVKGDVVLGRVVDLRNSIALIEVSSKKGENRGPSNRGIGILHVSNVDEGYVKEISEAVGYLDILKARVIGDNLRLSTKEEEMGVLRALCSNCKTEMVREGDILKCPECGRVEKRKISTDYGKGEW,soluble
5,MRGKLDLGEQPLVLIWEVTQACELACKHCRADAQPRRHPDELSTAEGKALLDQASEFGDGQLVVLSGGDPLARGDLPELVEYGTEQGLRMTLTPSGTNSITPERLAELDDAGLRRLALSIDGGDSDAHDTFRGESGSFEATMAAAEAARNLDIPLQINTTVCAETVEQLPAIRDLVADLDAVLWSVFFLVPVGRGRVLTPIDPERAERVLKWLHEVSDEASFGLKTTEAPHYRRVAMEQQDEGASGLKRRMGIRAGKGFAFVSHTGEVFPSGFLPKSAGSVREESVVDIYRDSPLFQQLRDDDALTGKCGACRYRTVCGGSRSRAYATTGDPLAADPLCDYRPDGFEGSVPDQHPAD,not soluble
6,MRGLAVLVLLVFAVQVAAAEDFRPVVFVHGLAGSAGQFESQGMRFAANGYPAEYVKTFEYDTISWALVVETDMLFSGLGSEFGLNISQIIDPETLDKILSKSRERLIDETFSRLDRVIDEALAESGADKVDLVGHSMGTFFLVRYVNSSPERAAKVAHLILLDGVWGVDAPEGIPTLAVFGNPKALPALGLPEEKVVYNATNVYFNNMTHVQLCTSPETFAVMFEFINGYKPATTDIVPQDGDYVKVKGKFLAFATNGDVSGWLSIYPIDENGKRLTRLPVKFMRVKGDFEVRLRKGQLYEFQFRKDFSPIIYHYYRAPFVRDDLWARFLVSKPPLDVELLILPERLSPAAKETSGLLLIRYKEMIGEYDEEIGGVDEVYVNGVNVCTERICPIERAVNGLWVFDRGADGKSDLDREVVRYSIMPFMSAADLVVPAEGTISIAVKSRTGGEESFTIPAWSADRHSIIVQFSDYI,not soluble
7,MRGPVKIVATVGPSSSSASILAQMLSLGVDVARINASHGGVEQWNSMLESLRRAEEAVGKRVGVAVDLEGPRVRTGNSEPVKLEKGDLVTLGFMEGDVPVDARQFFETIDEGDIVLLDDGKIILQVESVEGFRVKARVLEGGVLGPRKGVVVRGKEPDLPPLSAKDRRALEFFADKGVSHVYVSFARSAEHVEKVRTVVRRLGLRQARIFAKIEGPSGVSRIGEIAEASDGVIIARGDLGMHYSLEELPEIQELIVWEARKRYKTVVLATEFLSSMIEKPVPTRSEVVDIYQAVLQTADALMLTGETAIGKYPVKSVQWMAKISSRAYKKLATSPPERPRPTSTPYKLALGLVELAESLDSPLVVYSKTGRFAERLASFKPLKTFYVGVPSREVERVVRHLWGAEPIVVGDYPYEAGLAKTYEKLRRENIIHGDETVVEAAWSSERGIYIIRVRNLEF,soluble
8,MRGQNRRGYRNIEGRLSLSSHSSHSSPRQTHVTNLRPAEIKVVQDVVDGCYVATDDVLNLSNFSKNTEFVERDMLMCLTKTRVMSVVLQHIGYKYPRISGISFSNNRLCHLDHLSSLSSISKFLKFLDLSHNQISSGEELKKLGTIPVETVFFEGNPVCEKFVQCAEYANFIQKTFPKCSNLDGMEVEPKPDHNRIEQIIPFRNGYYGSDEVRTLVEEFIITYYKIYDGADGQQTRKQLLDAYDTNNSTFTHTVVCLWDPIKFVMYPDSESYRMYLRTSHNVLNQEYFAANRASRISHGAMDIVVALSRLPATIHLMDTFVVDVFLVSATLLGFTLHGTFRDGPSAIKPENTEEHDNYFTRTFMVAPRGEGKVAIVSDQLFISSMSKRRGDQYRMLVETATDIDQ,not soluble
9,MRGSHHHHHHGMASMAVSESQLKKMVSKYKYRDLTVRETVNVITLYKDLKPVLDSYVFNDGSSRELMNLTGTIPVPYRGNTYNIPICLWLLDTYPYNPPICFVKPTSSMTIKTGKHVDANGKIYLPYLHEWKHPQSDLLGLIQVMIVVFGDEPPVFSRP,soluble
10,MRGSHHHHHHGMASMTGGQQMGRDLYDDDDKDHPFMAQRTEESKGKLSFATQGGQGEGSYSKSNSAASKTLSACIVPSLEEFLLHHFSPPQGAGPIYYADFGCAVGANTIGLAKFVTETLKSRPEISERDFLCYFADLPTNDFNTLFNQFPPLASRDGGNGNVEERTWFAAGVPGNQFNRMFPRSSLHVAITTLTLHYLPEIPKSITDESSPTFNRGCISSHGASPAVAEVFADTSREGLRKFFQCRAEELASGGVLAFYFPSRPDRAHPERQMSEDSMQLALWKVETAWRELVAEGVMPEELLDTFNVPNCHPSKEEVEEVVDHETSCFHIQKLEYIHKHPFSPPNPELILKDAQSYAKWWTGILRGGLGGMLSAHMAPELTEALMERFSKHIEKDYLEKKPQFPMIMNICMGILIRK,soluble
11,MRGSHHHHHHGMASMTGGQQMGRDLYDDDDKDHPFTMFYEKIQTPAYILEEDKLRKNCELLASVGEKSGAKVLLALKGFAFSGAMKIVGEYLKGCTCSGLWEAKFAKEYMDKEIHTYSPAFKEDEIGEIASLSHHIVFNSLAQFHKFQSKTQKNSLGLRCNVEFSLAPKELYNPCGRYSRLGIRAKDFENVDLNAIEGLHFHALCEESADALEAVLKVFEEKFGKWIGQMKWVNFGGGHHITKKGYDVEKLIALCKNFSDKYGVQVYLEPGEAVGWQTGNLVASVVDIIENEKQIAILDTSSEAHMPDTIIMPYTSEVLNARILATRENEKISDLKENEFAYLLTGNTCLAGDVMGEYAFDKKLKIGDKIVFLDQIHYTIVKNTTFNGIRLPNLMLLDHKNELQMIREFSYKDYSLRN,soluble
12,MRGSHHHHHHGMASMVNTKPEKTEEDSEEVREQKHKTFVEKYEKQIKHFGMLRRWDDSQKYLSDNVHLVCEETANYLVIWCIDLEVEEKCALMEQVAHQTIVMQFILELAKSLKVDPRACFRQFFTKIKTADRQYMEGFNDELEAFKERVRGRAKLRIEKAMKEYEEEERKKRLGPGGLDPVEVYESLPEELQKCFDVKDVQMLQDAISKMDPTDAKYHMQRCIDSGLWVPNSKASEAKEGEEAGPGDPLLEAVPKTGDEKDVSV,soluble
13,MRGSHHHHHHGSAHGLTDDMTMHFRMEGCVDGHKFVIEGNGNGNPFKGKQFINLCVIEGGPLPFSEDILSAAFDYGNRLFTEYPEGIVDYFKNSCPAGYTWHRSFRFEDGAVCICSADITVNVRENCIYHESTFYGVNFPADGPVMKKMTTNWEPSCEKIIPINSQKILKGDVSMYLLLKDGGRYRCQFDTIYKAKTEPKEMPDWHFIQHKLNREDRSDAKNQKWQLIEHAIASRSALP,soluble
14,MRGSHHHHHHGSGKSYPTVSADYQKAVEKAKKKLRGFIAEKRCAPLMLRLAWHSAGTFDKGTKTGGPFGTIKHPAELAHSANNGLDIAVRLLEPLKAEFPILSYADFYQLAGVVAVEVTGGPEVPFHPGREDKPEPPPEGRLPDATKGSDHLRDVFGKAMGLTDQDIVALSGGHTIGAAHKERSGFEGPWTSNPLIFDNSYFTELLSGEKEGLLQLPSDKALLSDPVFRPLVDKYAADEDAFFADYAEAHQKLSELGFADAHEM,soluble
15,MRGSHHHHHHGSMAVPPTYADLGKSARDVFTKGYGFGLIKLDLKTKSENGLEFTSSGSANTETTKVNGSLETKYRWTEYGLTFTEKWNTDNTLGTEITVEDQLARGLKLTFDSSFSPNTGKKNAKIKTGYKREHINLGCDVDFDIAGPSIRGALVLGYEGWLAGYQMNFETSKSRVTQSNFAVGYKTDEFQLHTNVNDGTEFGGSIYQKVNKKLETAVNLAWTAGNSNTRFGIAAKYQVDPDACFSAKVNNSSLIGLGYTQTLKPGIKLTLSALLDGKNVNAGGHKLGLGLEFQA,soluble
16,MRGSHHHHHHTDPALRANEFSILCRVLGSLYYRQPQDPLLVPLFTLIREGKLAANWPLEQDELLTRLQKSCDMTQVSADYNALFIGDECAVPPYRSAWVEGATEAEVRAFLSERGMPLADTPADHIGTLLLAASWLEDQSTEDESEALETLFSEYLLPWCGAFLGKVEAHATTPFWRTMAPLTRDAISAMWDELEEDSEEGLCGR,soluble
17,MRHAVHQELIDTNPAANLGGVTTPPVRRHYPALPLERLPELLERIGAYHQGRELTRHAVLLMLHVFIRSSELRFARWSEIDFTNRVWTIPATREPIIGVRYSGRGAKMRMPHIVPLSEQSIAILKQIKDITGNNELIFPGDHNPYKPMCENTVNKALRVMGYDTKKDICGHGFRAMACSALMESGLWAKDAVERQMSHQERNTVRMAYIHKAEHLEARKAMMQWWSDYLEACRESYAPPYTIGKNKFIP,not soluble
18,MRHILSVLIENESGAMSRVVGLFSARDYNIDSLAVAPTEDKTLSRMTIVTHGDEQVIEQITKQLNKLIEVIKVVDLNESRFVERELMLVKVRAAGKDRDEFLRLTEIYRGSIIDVTDRSYTIEITGSTDKLDSFLETVGRAQILETVRTGAAGIGRGERILKI,not soluble

# From the DeepSol protein solubility set
